The values that follow are results of earlier work, collected in patent US10421954B2, “Hybrid polymers, pharmaceutical compositions and methods of synthesizing the same” (New York University, priority 2013, dated 2019).

The conditions of the data set: literature value (ref. 25) for marketed PTH (1-34) (Forteo).

Regarding `CC[C@H](C)[C@H](NC(=O)[C@H](CCC(=O)O)NC(=O)[C@H](CO)NC(=O)[C@@H](NC(=O)[C@@H](N)CO)C(C)C)C(=O)N[C@@H](CCC(N)=O)C(=O)N[C@@H](CC(C)C)C(=O)N[C@@H](CCSC)C(=O)N[C@@H](Cc1cnc[nH]1)C(=O)N[C@@H](CC(N)=O)C(=O)N[C@@H](CC(C)C)C(=O)NCC(=O)N[C@@H](CCCCN)C(=O)N[C@@H](Cc1cnc[nH]1)C(=O)N[C@@H](CC(C)C)C(=O)N[C@@H](CC(N)=O)C(=O)N[C@@H](CO)C(=O)N[C@@H](CCSC)C(=O)N[C@@H](CCC(=O)O)C(=O)N[C@@H](CCCN=C(N)N)C(=O)N[C@H](C(=O)N[C@@H](CCC(=O)O)C(=O)N[C@@H](Cc1c[nH]c2ccccc12)C(=O)N[C@@H](CC(C)C)C(=O)N[C@@H](CCCN=C(N)N)C(=O)N[C@@H](CCCCN)C(=O)N[C@@H](CCCCN)C(=O)N[C@@H](CC(C)C)C(=O)N[C@@H](CCC(N)=O)C(=O)N[C@@H](CC(=O)O)C(=O)N[C@H](C(=O)N[C@@H](Cc1cnc[nH]1)C(=O)N[C@@H](CC(N)=O)C(=O)N[C@@H](Cc1ccccc1)C(=O)O)C(C)C)C(C)C` [PTH (1-34), parathyroid hormone 1-34], the half-life in serum is recorded as ~5 min.
